# From US20230192843A1 (TENEOBIO, published 2023)
# Changes are numbered by the printed parent chain.
# B1: anti-MSLN single domain antibody clone 394556 (VHH)
# VHH: QLQLQESGPGLVKPSETLSLTCTVSGGSISNSYYWGWIRQPPGKGLEWIGSIYHSGNTYYNPSLKSRVTISVDTSKNQFSLKLSSVTAADTAVYYCVTQDGVGATTTEEYWGQGTLVTVSS
# notes: Human VH single domain antibody; It was captured on anti-hIgG Fc (AHC) sensors, so it apparently carried a human Fc
# B2: anti-MSLN single domain antibody clone 392026 (VHH)
# VHH: B1 VHH with V97T, T98S
# B3: anti-MSLN single domain antibody clone 394582 (VHH)
# VHH: B1 VHH with V97T, D100N
# notes: Human VH single domain antibody; It was captured on anti-hIgG Fc sensors
# B4: anti-MSLN single domain antibody clone 394610 (VHH)
# VHH: B1 VHH with N31S, V97T, T98S
# notes: Human VH single domain antibody; Tested as antibody-containing supernatant
# B5: anti-MSLN single domain antibody clone 394606 (VHH)
# VHH: B1 VHH with N31S, V97A, D100N
# notes: as for B4
# B6: anti-MSLN single domain antibody clone 394567 (VHH)
# VHH: B1 VHH with H54Y, N57S, T58I, Y59H, V97T, T98S
# notes: as for B4
# B7: anti-MSLN single domain antibody clone 394607 (VHH)
# VHH: B1 VHH with H54Y, N57S, K82S, S84N, V97A
# notes: as for B4
# B8: anti-MSLN single domain antibody clone 394573 (VHH)
# VHH: B1 VHH with V97A, D100N
# notes: as for B4
# B9: anti-MSLN single domain antibody clone 394541 (VHH)
# VHH: B1 VHH with I70M, V97T, T98S
# notes: as for B3
# Biological target: MSLN on HeLa cells (human) (UniProt Q13421)
# Assay: flow cytometry dose curve on HeLa cells
# Sequence of MSLN on HeLa cells (human) (Q13421 other isoform, or with tags, fused parts or gaps limits assumed): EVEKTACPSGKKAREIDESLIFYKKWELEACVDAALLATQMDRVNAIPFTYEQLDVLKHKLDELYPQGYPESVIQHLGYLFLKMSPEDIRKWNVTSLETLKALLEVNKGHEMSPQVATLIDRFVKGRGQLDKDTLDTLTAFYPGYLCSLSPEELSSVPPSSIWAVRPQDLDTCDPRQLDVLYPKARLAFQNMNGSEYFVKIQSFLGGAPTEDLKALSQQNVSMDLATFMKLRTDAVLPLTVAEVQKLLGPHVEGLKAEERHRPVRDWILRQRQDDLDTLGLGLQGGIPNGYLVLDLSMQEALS
row,Binder,EC50
1,B1,2.5 nM
2,B2,9.8 nM
3,B3,1.3 nM

# Biological target: T1, human MSLN expressed on CHO cells (human, UniProt Q13421 296-598)
# T1 construct: whole, on cells; also called CHO-huMSLN
# Assay: flow cytometry dose curve on CHO cells expressing human MSLN
# Method: Cell-binding dose curves for example anti-MSLN single domain antibodies described herein were performed using CHO cells expressing human MSLN (FIG. 1A), HeLa cells (FIG. 1B), and CHO-OFFtgt cells (FIG. 1C). The single domain antibodies were tested at a starting concentration of 150 nM, followed by 3-fold serial dilutions for an 8-point dose curve. All washes and dilutions of cells, antibodies, and reagents were performed using flow buffer (1X phosphate buffered saline (PBS), 1% bovine serum albumin (BSA), and 0.1% NaN₃). Cells were pelleted and resuspended at 1 × 10⁶ cells/mL in flow buffer. Then, 50 µL cells were combined with 50 µL of test antibody and incubated 30 minutes at 4° C., followed by two wash steps with flow buffer. Cells were then resuspended in 50 µL PE-conjugated secondary diluted to 1.25 µg/mL (Southern Biotech #2042-09) and incubated for 20 minutes at 4° C. After two wash steps, cells were resuspended in flow buffer and analyzed using a BD Celesta system. PE mean fluorescence intensity was plotted as a fold over background (cells incubated with secondary detection antibody only).
# To determine cell binding EC50 values for example anti-MSLN single domain antibodies of the present disclosure, cell binding dose curves were performed on HeLa cells and CHO cells expressing human MSLN. […]
row,Binder,EC50
1,B1,2.9 nM
2,B3,2.2 nM

# Biological target: T1, human MSLN expressed on CHO cells
# Assay: flow cytometry, antibody supernatant on CHO cells expressing human MSLN
# Method: Pelleted CHO cells were resuspended in flow buffer (1X phosphate buffered saline (PBS), 1% bovine serum albumin (BSA), and 0.1% NaN₃) at 1.25 × 10⁶ cells/mL. Antibody containing supernatants were diluted 1:5 in flow buffer, and 40 µL cells plus 10 µL diluted antibody supernatant were incubated for 30 minutes at 4° C. Cells were washed with flow buffer and resuspended in 50 µL phycoerythrin (PE)-conjugated secondary antibody (Southern Biotech #2042-09) diluted in flow buffer to 1.25 µg/mL and incubated for 20 minutes at 4° C. After two wash steps, cells were resuspended in flow buffer and analyzed using a Guava easyCyte 8HT system. Table E1 summarizes the target binding activity of the anti-MSLN single domain antibodies as fold over background MFI signal.
row,Binder,fold over background MFI signal
1,B1,540 fold over background
2,B4,78 fold over background
3,B5,87.3 fold over background
4,B6,16.9 fold over background
5,B7,141 fold over background
6,B8,194 fold over background
7,B3,367 fold over background
8,B9,422 fold over background

# Biological target: T2, recombinant human MSLN (R&D Systems, #3265-MS) (human, UniProt Q13421 296-580, limits assumed)
# T2 construct: Bought protein; also called antigen
# Assay: BLI (Octet HTX), antibody on AHC sensor, antigen in solution, 1:1 model
# Method: Table E3 summarizes affinity and epitope bin information for example anti-MSLN single domain antibodies of the present disclosure. The affinity of each single domain antibody to recombinant human MSLN (R&D Systems, #3265-MS) was measured by Bio-layer interferometry (BLI) using an Octet HTX. AHC (Anti-hIgG Fc Capture) sensors were used to immobilize test antibody at 5 µg/mL. After baseline readings, sensors were dipped into antigen solutions (starting at 500 nM followed by a 7-point, 2-fold dilution series). Association and dissociation were measured for 180 and 240 seconds respectively. Data were analyzed with Octet Data Analysis v11.0 HT (ForteBio) using a standard 1:1 binding model. Epitope bins for the single domain antibodies were determined by an in-tandem competition BLI binding experiment using an Octet HTX. The antigen (5 µg/mL) was loaded on the sensor Ni-NTA sensor followed by a baseline in kinetic buffer. The antigen coated sensor was then dipped into a saturating concentration Antibody 1. A second baseline was now set for 300 sec. Then the antigen-antibody 1 complex was dipped into Antibody 2 solution for 180 sec and then allowed to dissociate.
# T2 sequence (Q13421 other isoform, or with tags, fused parts or gaps limits assumed): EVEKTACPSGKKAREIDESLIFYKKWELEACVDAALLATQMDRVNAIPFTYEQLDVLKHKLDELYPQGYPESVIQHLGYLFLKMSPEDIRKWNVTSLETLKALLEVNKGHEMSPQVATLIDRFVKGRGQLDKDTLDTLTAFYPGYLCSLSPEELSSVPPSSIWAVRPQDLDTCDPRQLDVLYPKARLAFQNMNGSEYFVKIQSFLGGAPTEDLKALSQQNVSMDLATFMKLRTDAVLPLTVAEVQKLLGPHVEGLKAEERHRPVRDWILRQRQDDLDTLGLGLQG
row,Binder,Kd
1,B1,90.4 nM
2,B3,220 nM
3,B9,3800 nM
